Source: patent publication US20090191186A1 (KALOBIOS PHARMACEUTICALS, published 2009)

Each binder was assayed against PcrV of the Type III secretion system on P. aeruginosa strain PA103 (Pseudomonas aeruginosa strain PA103) (assay: cell-based or functional assay).

Binder | IC50 (nM), TTSS-dependent cytotoxicity assay (PA103 killing of P3-X63-Ag8 cells) [nM]
Fab SEQ ID NOs: 5, 6 (Fab, V domains shown) VH: QVQLVESGGGVVQPGRSLRLSCTASGFSFSSYGMHWVRQAPGKGLEWVAVIWYNGKEISYADSVKGRFTVSRDNPKNTLYLQMSSLRTEDTAVYYCARNRGDIYYDFTYAMDIWGQGTMVTVSS VL: AIQLTQSPSFLSASVGDRVTITCRASQGISTYLAWYQQKPGKAPKLLIYAASSLQSGVPSRFSGSGSGTDFTLTISSLQPEDVATYYCQQFWSTPYTFGQGTKLEIK | 50.2
Fab SEQ ID NOs: 13, 4 (Fab, V domains shown) VH: QVQLVESGGGVVQPGRSLRLSCAASGFTFSSYPLHWVRQAPGKGLEWVSFISYDGSEKYYASSVKGRFTISRDNSENTLYLQMNSLRPEDTAVYYCARNRGDIYYDFTYAMDIWGQGTMVTVSS VL: DIQMTQSPSSLSASVGDRVTITCRASQSISRWVAWYQQRPGKAPNLLIYDASSLKSGVPSRFSGSGSGTEFTLTISSLQPEDIATYYCQQFWSTPYTFGQGTKLEIK | 20
Fab SEQ ID NOs: 13, 37 (Fab, V domains shown) VH: QVQLVESGGGVVQPGRSLRLSCAASGFTFSSYPLHWVRQAPGKGLEWVSFISYDGSEKYYASSVKGRFTISRDNSENTLYLQMNSLRPEDTAVYYCARNRGDIYYDFTYAMDIWGQGTMVTVSS VL: DIQMTQSPSSLSASVGDRVTITCRASQSISRWVAWYQQRPGKAPNLLIYDASSLKSGVPSRFSGSGSGTEFTLTISSLQPEDIATYYCQQFWGTPYTFGQGTKLEIK | 12
Fab SEQ ID NOs 3, 4 (Fab, V domains shown) VH: QVQLVESGGGVVQPGGSLRLSCAASGFTFSTAGMHWVRQAPGKGLEWVAVIWYNGKEISYADSVKGRFTVSRDNPKNTLYLQMSSLRTEDTAVYYCARNRGDIYYDFTYAMDIWGQGTMVTVSS VL: DIQMTQSPSSLSASVGDRVTITCRASQSISRWVAWYQQRPGKAPNLLIYDASSLKSGVPSRFSGSGSGTEFTLTISSLQPEDIATYYCQQFWSTPYTFGQGTKLEIK | 35.1
Fab SEQ ID NOs: 13, 10 (Fab, V domains shown) VH: QVQLVESGGGVVQPGRSLRLSCAASGFTFSSYPLHWVRQAPGKGLEWVSFISYDGSEKYYASSVKGRFTISRDNSENTLYLQMNSLRPEDTAVYYCARNRGDIYYDFTYAMDIWGQGTMVTVSS VL: DIQLTQSPSFLSASVGDRVTITCRASQGISTYLAWYQQKPGKAPKLLIYDASALQSGVPSRFSGSGSGTEFTLTISSLQPEDVATYYCQQFWSTPYTFGQGTKLEIK | 25.5
Fab SEQ ID NOs. 24, 26 (Fab, V domains shown) VH: EVQLVESGGGVVQPGRSLRLSCAASGFTFSNYPMHWVRQAPGKGLEWVAVISYDGSEKWYADSVKGRFTISRDNSKNTLYLEMNSLRPEDTAVYYCARNRGDIYYDFTYAMDIWGQGTTVTVSS VL: DIQLTQSPSTLSASVGDSVTITCRASEGVDRWLAWYQQKPGRAPKLLIYDASTLQSGVPSRFSGSGSGTEFSLTISSLQPDDVATYYCQHFWGTPYTFGQGTKLEIK | 25.5
Fab SEQ ID NOs. 35. 36 (Fab, V domains shown) VH: EVQLVESGGGVVQPGRSLRLSCAASGFTFSNYPMHWVRQAPGKGLEWVAVISYDGSEKWYADSVKGRFTISRDNSKNTLYLEMNSLRPEDTAVYYCARNRGDIYYDFTYAMDYWGQGTTVTVSS VL: DIQLTQSPSTLSASVGDSVTITCRASEGVDRWLAWYQQKPGRAPKLLIYDASTLQSGVPSRFSGSGSGTEFSLTISSLQPDDVATYYCQHFWSTPYTFGQGTKLEIK | 61.4
